{
  "source": "patent US20120316071A1",
  "about": "(published 2012)",
  "binders": {"B1": {"name": "Fab VH1-46_IGHD6-6*01_IGHJ1*01 S102A/S103P/S104F/H111F (APFF) & L6_IGKJ1*01 S92P (Fab, V domains shown)", "VH": "QVQLVQSGAEVKKPGASVKVSCKASGYTFTSYYMHWVRQAPGQGLEWMGIINPSGGSTSYAQKFQGRVTMTRDTSTSTVYMELSSLRSEDTAVYYCAREEYAPFSAEYFQFWGQGTLVTVSS", "VL": "EIVLTQSPATLSLSPGERATLSCRASQSVSSYLAWYQQKPGQAPRLLIYDASNRATGIPARFSGSGSGTDFTLTISSLEPEDFAVYYCQQRPNWPPWTFGQGTKVEIKR", "notes": "also called APFF / S92P"}, "B2": {"name": "Fab VH1-46_IGHD6-6*01_IGHJ1*01 S102A/S103P/S104F/H111F (APFF) & L6_IGKJ1*01 S92P (Fab, V domains shown)", "VH": "QVQLVQSGAEVKKPGASVKVSCKASGYTFTSYYMHWVRQAPGQGLEWMGIINPSGGSTSYAQKFQGRVTMTRDTSTSTVYMELSSLRSEDTAVYYCAREEYAPFSAEYFQFWGQGTLVTVSS", "VL": "EIVLTQSPATLSLSPGERATLSCRASQSVSSYLAWYQQKPGQAPRLLIYDASNRATGIPARFSGSGSGTDFTLTISSLEPEDFAVYYCQQRPNWPPWTFGQGTKVEIKR", "notes": "Fab; also called APFF / S92P"}, "B3": {"name": "Fab VH1-46_IGHD6-6*01_IGHJ1*01 S102A/S103P/S104F/H111F (APFF) & L6_IGKJ1*01 S92Q (Fab, V domains shown)", "VH": "QVQLVQSGAEVKKPGASVKVSCKASGYTFTSYYMHWVRQAPGQGLEWMGIINPSGGSTSYAQKFQGRVTMTRDTSTSTVYMELSSLRSEDTAVYYCAREEYAPFSAEYFQFWGQGTLVTVSS", "VL": "EIVLTQSPATLSLSPGERATLSCRASQSVSSYLAWYQQKPGQAPRLLIYDASNRATGIPARFSGSGSGTDFTLTISSLEPEDFAVYYCQQRQNWPPWTFGQGTKVEIKR", "notes": "Fab; also called APFF / S92Q"}, "B4": {"name": "Fab VH1-46_IGHD6-6*01_IGHJ1*01 S102A/S103P/S104F/H111F (APFF) & L6_IGKJ1*01 W94M (Fab, V domains shown)", "VH": "QVQLVQSGAEVKKPGASVKVSCKASGYTFTSYYMHWVRQAPGQGLEWMGIINPSGGSTSYAQKFQGRVTMTRDTSTSTVYMELSSLRSEDTAVYYCAREEYAPFSAEYFQFWGQGTLVTVSS", "VL": "EIVLTQSPATLSLSPGERATLSCRASQSVSSYLAWYQQKPGQAPRLLIYDASNRATGIPARFSGSGSGTDFTLTISSLEPEDFAVYYCQQRSNMPPWTFGQGTKVEIKR", "notes": "also called APFF / W94M"}},
  "key": {"[1]": {"molecular_target": "T1, rHuman CD44/Fc Chimera, CF (R&D Systems Cat#3660-CD) (human, UniProt P16070 21-220)", "assay": "ECL Multispot (MSD), antigen spotted on plate, Fab in solution; blank spot 292"}, "[2]": {"molecular_target": "T2, rHuman P-Cadherin/Fc Chimera, CF (R&D Systems Cat#861-PC) (human, UniProt P22223 108-654)", "assay": "ECL Multispot (MSD), antigen spotted on plate, Fab in solution; blank spot 292"}, "[3]": {"molecular_target": "T3, rHuman Erythropoietin R/Fc Chimera, CF (R&D Systems Cat#963-ER) (human, UniProt P19235 25-250)", "assay": "ECL Multispot (MSD), antigen spotted on plate, Fab in solution; blank spot 292"}, "[4]": {"molecular_target": "rHuman HGF R/c-MET/Fc Chimera, CF (R&D Systems Cat#358-MT/CF) (human, UniProt P08581 25-932)", "assay": "ECL Multispot (MSD), antigen spotted on plate, Fab in solution; blank spot 292"}, "[5]": {"molecular_target": "T4, rHuman Notch-1/Fc Chimera, CF (R&D Systems Cat#3647-TK) (human)", "T4 chain": "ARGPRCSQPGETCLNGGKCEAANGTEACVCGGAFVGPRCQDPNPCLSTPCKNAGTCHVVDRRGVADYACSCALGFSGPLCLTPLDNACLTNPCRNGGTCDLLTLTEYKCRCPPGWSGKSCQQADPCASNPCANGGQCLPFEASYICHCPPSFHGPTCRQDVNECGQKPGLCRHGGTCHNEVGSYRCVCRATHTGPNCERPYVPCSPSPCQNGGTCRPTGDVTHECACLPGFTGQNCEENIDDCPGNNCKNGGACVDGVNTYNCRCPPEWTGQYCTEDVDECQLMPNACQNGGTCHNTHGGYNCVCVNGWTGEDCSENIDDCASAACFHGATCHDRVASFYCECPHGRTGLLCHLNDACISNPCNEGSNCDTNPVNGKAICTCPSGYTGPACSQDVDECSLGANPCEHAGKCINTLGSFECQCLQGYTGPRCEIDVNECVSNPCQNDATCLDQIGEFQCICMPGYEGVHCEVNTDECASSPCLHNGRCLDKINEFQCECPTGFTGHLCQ", "assay": "ECL Multispot (MSD), antigen spotted on plate, Fab in solution; blank spot 292"}, "[6]": {"molecular_target": "T5, rHuman P-Cadherin/Fc Chimera, CF (R&D Systems Cat#861-PC) (human, UniProt P22223 108-654)", "T5 construct": "Bought recombinant protein; not shown: Fc of the bought chimera", "assay": "MSD ECL multispot assay, antigen spotted on plate, Fab in solution; blank spot of this row 166"}, "[7]": {"molecular_target": "T6, rHuman IGF-1 sR (insulin-like growth factor-1 soluble receptor), CF (R&D Systems Cat#391-GR) (human, UniProt P08069 31-932)", "T6 construct": "Bought recombinant soluble receptor", "assay": "MSD ECL multispot assay, antigen spotted on plate, Fab in solution; blank spot of this row 166"}, "[8]": {"molecular_target": "T7, rHuman CD44/Fc Chimera, CF (R&D Systems Cat#3660-CD) (human, UniProt P16070 21-220)", "T7 construct": "Bought recombinant protein; not shown: Fc of the bought chimera", "assay": "MSD ECL multispot assay, antigen spotted on plate, Fab in solution; blank spot of this row 166"}, "[9]": {"molecular_target": "T8, rHuman Erythropoietin R/Fc Chimera, CF (R&D Systems Cat#963-ER) (human, UniProt P19235 25-250)", "T8 construct": "Bought recombinant protein; also called EPO R; EPO R/Fc; not shown: Fc of the bought chimera", "T8 sequence (looked up)": "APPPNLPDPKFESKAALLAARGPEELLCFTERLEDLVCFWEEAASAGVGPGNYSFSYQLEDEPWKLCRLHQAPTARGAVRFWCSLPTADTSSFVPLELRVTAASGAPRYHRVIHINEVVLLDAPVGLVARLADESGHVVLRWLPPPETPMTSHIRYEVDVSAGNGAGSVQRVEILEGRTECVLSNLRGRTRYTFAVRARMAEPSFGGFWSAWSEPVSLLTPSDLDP", "assay": "MSD ECL multispot assay, antigen spotted on plate, Fab in solution; blank spot of this row 166"}, "[10]": {"molecular_target": "T9, Recombinant Human DLL4 (R&D Systems Cat#1506-D4/CF) (human, UniProt Q9NR61 27-524)", "T9 construct": "Bought recombinant protein; also called delta-like protein 4; rHuman DLL4", "assay": "MSD ECL multispot assay, antigen spotted on plate, Fab in solution; blank spot of this row 166"}, "[11]": {"molecular_target": "T10, rHuman Notch-1/Fc Chimera, CF (R&D Systems Cat#3647-TK) (human, UniProt P46531 19-526)", "T10 construct": "Bought recombinant protein; not shown: Fc of the bought chimera", "assay": "MSD ECL multispot assay, antigen spotted on plate, Fab in solution; blank spot of this row 166"}, "[12]": {"molecular_target": "T11, rHuman HGF R/c-MET/Fc Chimera, CF (R&D Systems Cat#358-MT/CF) (human, UniProt P08581 25-932)", "T11 construct": "Bought recombinant protein; also called HGF R/Fc; not shown: Fc of the bought chimera", "assay": "MSD ECL multispot assay, antigen spotted on plate, Fab in solution; blank spot of this row 166"}, "[13]": {"molecular_target": "T5, rHuman P-Cadherin/Fc Chimera, CF (R&D …)", "assay": "MSD ECL multispot assay, antigen spotted on plate, Fab in solution; blank spot of this row 255"}, "[14]": {"molecular_target": "T6, rHuman IGF-1 sR (insulin-like growth …)", "assay": "MSD ECL multispot assay, antigen spotted on plate, Fab in solution; blank spot of this row 255"}, "[15]": {"molecular_target": "T12, rHuman EGF R/Fc Chimera, CF (R&D Systems Cat#344-ER) (human, UniProt P00533 25-645)", "T12 construct": "Bought recombinant protein; not shown: Fc of the bought chimera", "assay": "MSD ECL multispot assay, antigen spotted on plate, Fab in solution; blank spot of this row 255"}, "[16]": {"molecular_target": "T7, rHuman CD44/Fc Chimera, CF (R&D Systems …)", "assay": "MSD ECL multispot assay, antigen spotted on plate, Fab in solution; blank spot of this row 255"}, "[17]": {"molecular_target": "T8, rHuman Erythropoietin R/Fc Chimera, CF …", "assay": "MSD ECL multispot assay, antigen spotted on plate, Fab in solution; blank spot of this row 255"}, "[18]": {"molecular_target": "T10, rHuman Notch-1/Fc Chimera, CF (R&D …)", "assay": "MSD ECL multispot assay, antigen spotted on plate, Fab in solution; blank spot of this row 255"}, "[19]": {"molecular_target": "T11, rHuman HGF R/c-MET/Fc Chimera, CF (R&D …)", "assay": "MSD ECL multispot assay, antigen spotted on plate, Fab in solution; blank spot of this row 255"}, "[20]": {"molecular_target": "T13, rHuman ErbB2/Fc Chimera, CF (R&D Systems Cat#1129-ER) (human, UniProt P04626 23-652)", "T13 construct": "Bought recombinant protein; not shown: Fc of the bought chimera", "assay": "MSD ECL multispot assay, antigen spotted on plate, Fab in solution; blank spot of this row 255"}, "[21]": {"molecular_target": "T1, rHuman CD44/Fc Chimera, CF (R&D Systems …)", "assay": "ECL Multispot (MSD), antigen spotted on plate, Fab in solution; blank spot 241"}, "[22]": {"molecular_target": "T2, rHuman P-Cadherin/Fc Chimera, CF (R&D …)", "assay": "ECL Multispot (MSD), antigen spotted on plate, Fab in solution; blank spot 241"}, "[23]": {"molecular_target": "T3, rHuman Erythropoietin R/Fc Chimera, CF …", "assay": "ECL Multispot (MSD), antigen spotted on plate, Fab in solution; blank spot 241"}, "[24]": {"molecular_target": "T4, rHuman Notch-1/Fc Chimera, CF (R&D …)", "assay": "ECL Multispot (MSD), antigen spotted on plate, Fab in solution; blank spot 241"}},
  "data": [
    {"binder": "B1", "values": [
      {"measurement": "ECL signal", "setting": "[1]", "value": 282},
      {"measurement": "ECL signal", "setting": "[2]", "value": 354},
      {"measurement": "ECL signal", "setting": "[3]", "value": 391},
      {"measurement": "ECL signal", "setting": "[4]", "value": 242},
      {"measurement": "ECL signal", "setting": "[5]", "value": 346}
    ]},
    {"binder": "B2", "values": [
      {"measurement": "ECL signal", "setting": "[6]", "value": 307},
      {"measurement": "ECL signal", "setting": "[7]", "value": 280},
      {"measurement": "ECL signal", "setting": "[8]", "value": 292},
      {"measurement": "ECL signal", "setting": "[9]", "value": 385},
      {"measurement": "ECL signal", "setting": "[10]", "value": 446},
      {"measurement": "ECL signal", "setting": "[11]", "value": 328},
      {"measurement": "ECL signal", "setting": "[12]", "value": 256}
    ]},
    {"binder": "B3", "values": [
      {"measurement": "ECL signal", "setting": "[13]", "value": 340},
      {"measurement": "ECL signal", "setting": "[14]", "value": 246},
      {"measurement": "ECL signal", "setting": "[15]", "value": 332},
      {"measurement": "ECL signal", "setting": "[16]", "value": 312},
      {"measurement": "ECL signal", "setting": "[17]", "value": 330},
      {"measurement": "ECL signal", "setting": "[18]", "value": 351},
      {"measurement": "ECL signal", "setting": "[19]", "value": 373},
      {"measurement": "ECL signal", "setting": "[20]", "value": 282}
    ]},
    {"binder": "B4", "values": [
      {"measurement": "ECL signal", "setting": "[21]", "value": 327},
      {"measurement": "ECL signal", "setting": "[22]", "value": 346},
      {"measurement": "ECL signal", "setting": "[23]", "value": 435},
      {"measurement": "ECL signal", "setting": "[24]", "value": 321}
    ]}
  ]
}
